In patent publication US20250154287A1:

Target: CD19 on B cells and plasma cells in PBMCs (human) (UniProt P15391)
Test: cell-based or functional assay

Sequence of CD19 on B cells and plasma cells in PBMCs (human) (P15391 20-556): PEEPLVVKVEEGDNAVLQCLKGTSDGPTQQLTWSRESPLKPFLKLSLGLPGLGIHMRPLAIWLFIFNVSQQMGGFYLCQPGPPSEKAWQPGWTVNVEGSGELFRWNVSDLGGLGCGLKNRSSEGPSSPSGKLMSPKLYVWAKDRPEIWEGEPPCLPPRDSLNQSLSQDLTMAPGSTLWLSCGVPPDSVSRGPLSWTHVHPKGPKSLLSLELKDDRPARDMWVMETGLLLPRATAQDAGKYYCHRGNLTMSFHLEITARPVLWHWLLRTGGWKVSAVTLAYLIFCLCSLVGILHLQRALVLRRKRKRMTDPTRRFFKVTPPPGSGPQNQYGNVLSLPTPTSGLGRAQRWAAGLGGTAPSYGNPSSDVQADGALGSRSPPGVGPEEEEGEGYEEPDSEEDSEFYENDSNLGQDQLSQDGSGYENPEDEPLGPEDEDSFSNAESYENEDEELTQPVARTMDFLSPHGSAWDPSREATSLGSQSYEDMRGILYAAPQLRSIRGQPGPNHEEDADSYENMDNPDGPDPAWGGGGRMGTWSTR

“CD19-CD3 scFv (InvivoGen, Cat number Bimab-cd19cd3-01)” was tested, and the EC50 (nM), cytotoxicity against IgA^+ CD20^+ B cells by flow cytometry was 0.00325 nM, the EC50 (nM), reduction in secreted IgA in human PBMC supernatants was 0.0368 nM and the Top (MFI) as printed, cytotoxicity against IgA^+ CD20^+ B cells by flow cytometry was 92.8. It also gave a reduction of secreted IgA in PBMC supernatants (IgA ELISA) of 57%.
